Laboratory results published in PMC4132754 (Nucleic Acids Research, 2014).

Biological target: Flag-HA-SBP-SMG6 (human, UniProt Q86US8 1-1419)
Test: pull-down

Chain of Flag-HA-SBP-SMG6 (Q86US8 whole entry): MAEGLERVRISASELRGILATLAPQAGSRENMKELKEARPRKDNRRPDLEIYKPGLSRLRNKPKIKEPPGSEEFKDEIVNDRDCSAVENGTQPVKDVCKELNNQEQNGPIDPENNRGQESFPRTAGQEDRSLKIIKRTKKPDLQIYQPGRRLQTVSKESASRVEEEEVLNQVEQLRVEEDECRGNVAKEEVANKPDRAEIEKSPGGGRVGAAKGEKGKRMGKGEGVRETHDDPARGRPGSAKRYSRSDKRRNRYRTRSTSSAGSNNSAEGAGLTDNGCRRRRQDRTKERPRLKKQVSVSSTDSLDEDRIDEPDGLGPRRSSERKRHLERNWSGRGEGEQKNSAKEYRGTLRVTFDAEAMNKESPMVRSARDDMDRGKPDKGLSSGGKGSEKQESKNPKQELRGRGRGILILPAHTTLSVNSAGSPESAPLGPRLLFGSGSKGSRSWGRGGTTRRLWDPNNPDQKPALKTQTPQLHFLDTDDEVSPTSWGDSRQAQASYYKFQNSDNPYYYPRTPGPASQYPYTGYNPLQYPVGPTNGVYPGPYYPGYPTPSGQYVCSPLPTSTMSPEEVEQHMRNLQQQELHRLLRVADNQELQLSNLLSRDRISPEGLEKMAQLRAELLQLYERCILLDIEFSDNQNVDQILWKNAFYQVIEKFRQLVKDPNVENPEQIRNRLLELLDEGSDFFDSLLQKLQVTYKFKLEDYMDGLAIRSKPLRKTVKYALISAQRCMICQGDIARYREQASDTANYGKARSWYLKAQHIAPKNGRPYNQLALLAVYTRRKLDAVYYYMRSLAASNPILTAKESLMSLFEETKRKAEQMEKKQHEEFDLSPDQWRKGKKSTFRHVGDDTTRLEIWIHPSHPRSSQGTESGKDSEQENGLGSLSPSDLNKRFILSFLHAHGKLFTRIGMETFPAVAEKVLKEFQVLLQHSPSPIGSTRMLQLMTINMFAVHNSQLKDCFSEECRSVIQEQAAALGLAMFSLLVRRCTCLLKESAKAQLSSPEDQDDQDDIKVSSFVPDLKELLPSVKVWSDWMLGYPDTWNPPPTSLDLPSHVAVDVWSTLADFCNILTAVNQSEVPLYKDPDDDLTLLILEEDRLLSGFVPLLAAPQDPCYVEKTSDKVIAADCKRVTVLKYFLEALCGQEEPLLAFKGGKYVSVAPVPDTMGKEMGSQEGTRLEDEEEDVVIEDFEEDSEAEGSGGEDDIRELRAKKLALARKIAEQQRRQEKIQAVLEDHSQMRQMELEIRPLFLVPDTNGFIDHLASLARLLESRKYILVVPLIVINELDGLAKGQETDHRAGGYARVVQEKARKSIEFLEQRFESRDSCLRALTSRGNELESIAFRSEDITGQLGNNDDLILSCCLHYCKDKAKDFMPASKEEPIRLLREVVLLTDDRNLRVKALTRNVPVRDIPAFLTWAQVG

Row | binding result | Binder
1 | binds | SBP-UPF1 WT (natural protein) MSVEAYGPSSQTLTFLDTEEAELLGADTQGSEFEFTDFTLPSQTQTPPGGPGGPGGGGAGGPGGAGAGAAAGQLDAQVGPEGILQNGAVDDSVAKTSQLLAELNFEEDEEDTYYTKDLPIHACSYCGIHDPACVVYCNTSKKWFCNGRGNTSGSHIVNHLVRAKCKEVTLHKDGPLGETVLECYNCGCRNVFLLGFIPAKADSVVVLLCRQPCASQSSLKDINWDSSQWQPLIQDRCFLSWLVKIPSEQEQLRARQITAQQINKLEELWKENPSATLEDLEKPGVDEEPQHVLLRYEDAYQYQNIFGPLVKLEADYDKKLKESQTQDNITVRWDLGLNKKRIAYFTLPKTDSDMRLMQGDEICLRYKGDLAPLWKGIGHVIKVPDNYGDEIAIELRSSVGAPVEVTHNFQVDFVWKSTSFDRMQSALKTFAVDETSVSGYIYHKLLGHEVEDVIIKCQLPKRFTAQGLPDLNHSQVYAVKTVLQRPLSLIQGPPGTGKTVTSATIVYHLARQGNGPVLVCAPSNIAVDQLTEKIHQTGLKVVRLCAKSREAIDSPVSFLALHNQIRNMDSMPELQKLQQLKDETGELSSADEKRYRALKRTAERELLMNADVICCTCVGAGDPRLAKMQFRSILIDESTQATEPECMVPVVLGAKQLILVGDHCQLGPVVMCKKAAKAGLSQSLFERLVVLGIRPIRLQVQYRMHPALSAFPSNIFYEGSLQNGVTAADRVKKGFDFQWPQPDKPMFFYVTQGQEEIASSGTSYLNRTEAANVEKITTKLLKAGAKPDQIGIITPYEGQRSYLVQYMQFSGSLHTKLYQEVEIASVDAFQGREKDFIILSCVRANEHQGIGFLNDPRRLNVALTRARYGVIIVGNPKALSKQPLWNHLLNYYKEQKVLVEGPLNNLRESLMQFSKPRKLVNTINPGARFMTTAMYDAREAIIPGSVYDRSSQGRPSSMYFQTHDQIGMISAGPSHVAAMNIPIPFNLVMPPMPPPGYFGQANGPAAGRGTPKGKTGRGGRQKNRFGLPGPSQTNLPNSQASQDVASQPFSQGALTQGYISMSQPSQMSQPGLSQPELSQDSYLGDEFKSQIDVALSQDSTYQGERAYQHGGVTGLSQY
2 | binds | SBP-UPF1 ΔStalkΔSQ1 (domain or fragment) MSVEAYGPSSQTLTFLDTEEAELLGADTQGSEFEFTDFTLPSQTQTPPGGPGGPGGGGAGGPGGAGAGAAAGQLDAQVGPEGILQNGAVDDSVAKTSQLLAELNFEEDEEDTYYTKDLPIHACSYCGIHDPACVVYCNTSKKWFCNGRGNTSGSHIVNHLVRAKCKEVTLHKDGPLGETVLECYNCGCRNVFLLGFIPAKADSVVVLLCRQPCASQSSLKDINWDSSQWQPLIQDRCFLSWLVKIPSEQEQLRARQITAQQINKLEELWKETSVSGYIYHKLLGHEVEDVIIKCQLPKRFTAQGLPDLNHSQVYAVKTVLQRPLSLIQGPPGTGKTVTSATIVYHLARQGNGPVLVCAPSNIAVDQLTEKIHQTGLKVVRLCAKSREAIDSPVSFLALHNQIRNMDSMPELQKLQQLKDETGELSSADEKRYRALKRTAERELLMNADVICCTCVGAGDPRLAKMQFRSILIDESTQATEPECMVPVVLGAKQLILVGDHCQLGPVVMCKKAAKAGLSQSLFERLVVLGIRPIRLQVQYRMHPALSAFPSNIFYEGSLQNGVTAADRVKKGFDFQWPQPDKPMFFYVTQGQEEIASSGTSYLNRTEAANVEKITTKLLKAGAKPDQIGIITPYEGQRSYLVQYMQFSGSLHTKLYQEVEIASVDAFQGREKDFIILSCVRANEHQGIGFLNDPRRLNVALTRARYGVIIVGNPKALSKQPLWNHLLNYYKEQKVLVEGPLNNLRESLMQFSKPRKLVNTINPGARFMTTAMYDAREAIIPGSVYDRSSQGRPSSMYFQTHDQIGMISAGPSHVAAMNIPIPFNLVMPPMPPPGYFGQANGPAAGRGTPKGKTGRGG
3 | binds | SBP-UPF1 Δ1C (natural protein) MSVEAYGPSSQTLTFLDTEEAELLGADTQGSEFEFTDFTLPSQTQTPPGGPGGPGGGGAGGPGGAGAGAAAGQLDAQVGPEGILQNGAVDDSVAKTSQLLAELNFEEDEEDTYYTKDLPIHACSYCGIHDPACVVYCNTSKKWFCNGRGNTSGSHIVNHLVRAKCKEVTLHKDGPLGETVLECYNCGCRNVFLLGFIPAKADSVVVLLCRQPCASQSSLKDINWDSSQWQPLIQDRCFLSWLVKIPSEQEQLRARQITAQQINKLEELWKENPSATLEDLEKPGVDEEPQHVLLRYEDAYQYQNIFGPLVKLEADYDKKLKESQTQDNITVRWDLGLNKKRIAYFTLPKTDSDMRLMQGDEICLRYKGDLAPLWKGIGHVIKVPDNYGDEIAIELRSSVGAPVEVTHNFQVDFVWKSTSFDRMQSALKTFAVDETSVSGYIYHKLLGHEVEDVIIKCQLPKRFTAQGLPDLNHSQVYAVKTVLQRPLSLIQGPPGTGKTVTSATIVYHLARQGNGPVLVCAPSNIAVDQLTEKIHQTGLKVVRLCAKSREAIDSPVSFLANADVICCTCVGAGDPRLAKMQFRSILIDESTQATEPECMVPVVLGAKQLILVGDHCQLGPVVMCKKAAKAGLSQSLFERLVVLGIRPIRLQVQYRMHPALSAFPSNIFYEGSLQNGVTAADRVKKGFDFQWPQPDKPMFFYVTQGQEEIASSGTSYLNRTEAANVEKITTKLLKAGAKPDQIGIITPYEGQRSYLVQYMQFSGSLHTKLYQEVEIASVDAFQGREKDFIILSCVRANEHQGIGFLNDPRRLNVALTRARYGVIIVGNPKALSKQPLWNHLLNYYKEQKVLVEGPLNNLRESLMQFSKPRKLVNTINPGARFMTTAMYDAREAIIPGSVYDRSSQGRPSSMYFQTHDQIGMISAGPSHVAAMNIPIPFNLVMPPMPPPGYFGQANGPAAGRGTPKGKTGRGGRQKNRFGLPGPSQTNLPNSQASQDVASQPFSQGALTQGYISMSQPSQMSQPGLSQPELSQDSYLGDEFKSQIDVALSQDSTYQGERAYQHGGVTGLSQY
